Measurements reported in US20240391954A1, “MC4R AGONIST PEPTIDES” (The Regents of the University of Michigan, priority 2021, published 2024).
Several values for one entry are separate records, joined by “and”; a condition that tells them apart may be missing. Identical values can stand only once. Like-named read-outs stand apart in the source and are kept apart here. Starred links: 1 amine or outer side, 2 acyl side, 3 side chain; linkers in the order of their positions; H or OH if unused. Positions of bridges follow the written chain, without caps; N, C: chain ends. Non-standard residues stand in square brackets, D forms with d. dTyr(O-Me) = O-methyl-D-tyrosine, COc1ccc(C[C@@H](N[*:1])C(=O)[*:2])cc1; dPhe(4-F) = N[C@H](Cc1ccc(F)cc1)C(=O)O; Nle = CCCC[C@H](N)C(=O)O

Legend:
[1] = Mouse plasma stability; type: in vitro ADME; conditions: pooled mouse plasma, 37° C.
Method: FIG. 3. Results of plasma stability testing for control peptides. Compounds shown were incubated in mouse plasma at 37° C. at 1 μM concentrations. 40 ul aliquots were removed at the times indicated and the reactions stopped with the addition of 160 μL cold acetonitrile containing 200 ng/ml of peptide internal standard (IS). The incubation solution was centrifuged at 3500 rpm for 10 minutes to precipitate protein. LC/MS/MS analysis was used to determine the % peptide remaining.
Pooled mouse plasma was prepared and stored at −80° C, prior to use, 396 μL mouse plasma was incubated at 37° C. for 5 minutes in 1.5 mL microcentrifuge tubes. 4 μL of 100 μM test or control compound/peptide was added to each tube and incubated for 0.5, 15, 30, 60, 120, or 240 minutes. An aliquot of 40 μL of each reaction was stopped by the addition of 4 volume of cold acetonitrile containing 200 ng/mL of […] solution was centrifuged at 3500 rpm for 10 minutes to precipitate protein. The supernatant was used for LC/MS/MS analysis. The natural log peak area ratio (compound peak area/internal standard peak area) was plotted against time and the gradient of the line determined.

[2] = Pharmacokinetics: plasma and brain concentration after IP injection; type: in vivo, mouse; conditions: for Brain concentration, individual mice 1-3 / Plasma concentration, individual mice 1-3: individual animals, listed as setmelanotide
Method: FIG. 5. Pharmacokinetic data for an exemplary peptide relative to setmelanotide. Peptides at 1.5 mg/mL in PBS containing 10% DMSO and 10% PEG-400 were given by IP injection (15 mg/kg) to female CD-1 mice (n=15). At the given time points (0.5 h, 2 h, 4 h, 7 h and 24 h), brain samples were taken out and frozen at −80° C. immediately for later preparation and analysis, and blood samples were collected using heparinized calibrated pipettes. Blood samples were centrifuged at 15000 rpm for 10 min. Subsequently, blood plasma was collected from the upper layer. The plasma was frozen at −80° C. for later analysis. Peptide concentrations at times indicated were determined by LC MS/MS, using non-zero standards in blank Plasma and Brain Samples.
The drug at 1.5 mg/mL in PBS containing 10% DMSO and 10% PEG-400 was given by IP injection (15 mg/kg). At the given time points (0.5 h, 2 h, 4 h, 7 h and 24 h), brain samples were taken out and frozen at −80° C. immediately for later preparation and analysis, and blood samples were collected using heparinized calibrated pipettes. Blood samples were centrifuged at 15000 rpm for 10 min. Subsequently, blood plasma was collected from the upper layer. The plasma was frozen at −80° C. for later analysis.
The analytical curves were constructed using non-zero standards in the blank Plasma and Brain Samples. A blank sample (matrix sample processed without internal standard) was used to exclude contamination. The linear regression analysis of CTX1227/setmelanotide were performed by plotting the peak area ratio (y) against the CTX1227/setmelanotide concentration (x) in ng/mL, respectively.

[3] = Plasma protein binding (Centrifree ultrafiltration); type: in vitro ADME
Method: Solutions of test compound in DMSO were prepared at 1 mM, 100 uM and 10 uM, 5 ul of each solution of test compound was added to 495 uL plasma, and incubated at 25° C. for 5 min. Sample was added to a Centrifree® device, then centrifuged at 2000× g for 20 min to obtain desired filtrate volume. Initial plasma samples and ultrafiltrates were subjected to LC-MS/MS. % Free peptide=(concentration of ultrafiltrates/concentration of plasma)×100%. % Bound=100%−% Free

[4] = target: plasma protein; assay: plasma ultrafiltration (Centrifree), LC-MS/MS; peptide 0.1 uM
[5] = target: T1, human MC4R receptor (human, UniProt P32245 1-332); assay: cell-based or functional assay
T1 sequence (P32245 whole entry): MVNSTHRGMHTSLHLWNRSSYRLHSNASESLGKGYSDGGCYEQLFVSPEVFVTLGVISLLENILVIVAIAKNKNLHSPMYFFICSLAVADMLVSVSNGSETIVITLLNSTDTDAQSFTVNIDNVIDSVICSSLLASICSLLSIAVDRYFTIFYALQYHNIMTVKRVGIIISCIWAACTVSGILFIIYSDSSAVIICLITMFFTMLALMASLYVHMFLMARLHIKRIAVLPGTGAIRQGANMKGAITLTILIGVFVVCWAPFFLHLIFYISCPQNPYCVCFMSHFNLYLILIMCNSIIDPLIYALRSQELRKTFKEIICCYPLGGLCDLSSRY

[6] = target: plasma protein; assay: plasma ultrafiltration (Centrifree), LC-MS/MS; peptide 10.0 uM
[7] = target: T2, human MC3R (human, UniProt P41968 1-323); assay: cell-based or functional assay
T2 sequence (P41968 whole entry): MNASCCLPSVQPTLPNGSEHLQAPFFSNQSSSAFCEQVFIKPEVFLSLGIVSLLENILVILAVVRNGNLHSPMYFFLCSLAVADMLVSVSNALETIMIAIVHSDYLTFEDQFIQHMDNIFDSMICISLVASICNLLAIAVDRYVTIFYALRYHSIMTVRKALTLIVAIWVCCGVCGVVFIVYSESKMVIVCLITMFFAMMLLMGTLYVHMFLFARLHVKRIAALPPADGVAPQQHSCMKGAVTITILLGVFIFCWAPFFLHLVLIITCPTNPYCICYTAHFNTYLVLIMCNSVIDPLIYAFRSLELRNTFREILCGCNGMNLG

[8] = target: T1, human MC4R receptor; assay: cell-based or functional assay; remark: listed apart in the source
[9] = target: plasma protein; assay: plasma ultrafiltration (Centrifree), LC-MS/MS; peptide 1.0 uM
[10] = target: T1, human MC4R receptor; assay: cell-based or functional assay; remark: listed apart in the source
[11] = target: T2, human MC3R; assay: cell-based or functional assay; remark: listed apart in the source
[12] = target: T1, human MC4R receptor; assay: cell-based or functional assay; remark: listed apart in the source

CC(=O)N[C@@H](CCCN=C(N)N)C(=O)N[C@H]1CSSC[C@H](C(N)=O)NC(=O)[C@H](Cc2c[nH]c3ccccc23)NC(=O)C(CCCN=C(N)N)NC(=O)[C@@H](Cc2ccccc2)NC(=O)[C@H](Cc2cnc[nH]2)NC(=O)[C@@H](C)NC1=O (stereo partly drawn) [CTX-1200, Arg-cyclo(Cys-D-Ala-His-D-Phe-Arg-Trp-Cys), reference compound]
half-life at 1 µM [1]: > 180 min
Brain concentration, individual mice 1-3 ([2]; IP 15 mg/kg, 0.5 h, brain, 15 mg/kg): 306.5 ng/g and 231.5 ng/g and 247.5 ng/g
Plasma concentration, individual mice 1-3 ([2]; IP 15 mg/kg, 0.5 h, plasma, 15 mg/kg): 67000 ng/mL and 37200 ng/mL and 25800 ng/mL
Brain concentration, individual mice 1-3 ([2]; IP 15 mg/kg, 2 h, brain, 15 mg/kg): 207.5 ng/g and 121.5 ng/g and 220.5 ng/g
Plasma concentration, individual mice 1-3 ([2]; IP 15 mg/kg, 2 h, plasma, 15 mg/kg): 7190 ng/mL and 11000 ng/mL and 4580 ng/mL
Brain concentration, individual mice 1-3 ([2]; IP 15 mg/kg, 4 h, brain, 15 mg/kg): BLQ
Plasma concentration, individual mice 1-3 ([2]; IP 15 mg/kg, 4 h, plasma, 15 mg/kg): 455 ng/mL and 9590 ng/mL and 17.8 ng/mL
Brain concentration, individual mice 1-3 ([2]; IP 15 mg/kg, 7 h, brain, 15 mg/kg): BlQ and BLQ (2×)
Plasma concentration, individual mice 1-3 ([2]; IP 15 mg/kg, 7 h, plasma, 15 mg/kg): 64.2 ng/mL and 69.3 ng/mL and 55.3 ng/mL
Brain concentration, individual mice 1-3 ([2]; IP 15 mg/kg, 24 h, brain, 15 mg/kg): BlQ and BLQ (2×)
Plasma concentration, individual mice 1-3 ([2]; IP 15 mg/kg, 24 h, plasma, 15 mg/kg): 8.04 ng/mL and 7.37 ng/mL and 8.81 ng/mL
tissue level at time at 0.5 h ([2]; female, CD-1, mouse, brain, ip, 15 mg/kg, mice, 0.5 h, mean of 3): 262 ng/g
tissue level at time at 2 h ([2]; female, CD-1, mouse, brain, ip, 15 mg/kg, mice, 2 h, mean of 3): 183 ng/g
level at 0.5 h ([2]; female, CD-1, mouse, mice, IP 15 mg/kg, 0.5 h, plasma, mean of 3): 43300 ng/mL
level at 2 h ([2]; female, CD-1, mouse, mice, IP 15 mg/kg, 2 h, plasma, mean of 3): 7590 ng/mL
level at 4 h ([2]; female, CD-1, mouse, mice, IP 15 mg/kg, 4 h, plasma, mean of 3): 3350 ng/mL
level at 7 h ([2]; female, CD-1, mouse, mice, IP 15 mg/kg, 7 h, plasma, mean of 3): 62.9 ng/mL
level at 24 h ([2]; female, CD-1, mouse, mice, IP 15 mg/kg, 24 h, plasma, mean of 3, read-out: Plasma concentration, Mean): 8.07 ng/mL
fraction unbound at 5 min, 0.1 µM ([3]; 0.1 uM): 0.57
fraction unbound at 5 min, 1 µM ([3]; 1.0 uM): 0.43
fraction unbound at 5 min, 10 µM ([3]; 10.0 uM): 0.39

B1: CTX-1228 (peptide)
peptide: Ac-R[Nle]CR[dF]RWC-NH2
modifications: disulfide 3-8
SMILES: CCCC[C@H](NC(=O)[C@H](CCCNC(=N)N)NC(C)=O)C(=O)N[C@H]1CSSC[C@@H](C(N)=O)NC(=O)[C@H](Cc2c[nH]c3ccccc23)NC(=O)[C@H](CCCNC(=N)N)NC(=O)[C@@H](Cc2ccccc2)NC(=O)[C@H](CCCNC(=N)N)NC1=O
Protein Binding (%) [4]: 37%
MC4R selectivity vs MC1R [5]: 3.16
MC4R selectivity vs MC3R [5]: 8.38
Protein Binding (%) [6]: 39%
% max activation [7]: 93%
cAMP EC50 [7]: 1.6 nM
% max activation [8]: 102%
cAMP EC50 [8]: 0.2 nM
Protein Binding (%) [9]: 39%

B2: CTX-1236 (peptide)
peptide: Ac-RC[dA]R[dPhe(4-F)]R[dW]C-NH2
modifications: disulfide 2-8
Protein Binding (%) [4]: 45%
MC4R selectivity vs MC1R [10]: 2.01
MC4R selectivity vs MC3R [10]: 1.36
Protein Binding (%) [6]: 51%
Protein Binding (%) [9]: 49%
% max activation [11]: 66%
cAMP EC50 [11]: 2.6 nM
% max activation [12]: 97%
cAMP EC50 [12]: 1.9 nM

B3: CTX-1238 (peptide)
peptide: Ac-RC[dA]R[dTyr(O-Me)]R[dW]C-NH2
modifications: disulfide 2-8
SMILES: COc1ccc(C[C@H]2NC(=O)[C@H](CCCNC(=N)N)NC(=O)[C@@H](C)NC(=O)[C@@H](NC(=O)[C@H](CCCNC(=N)N)NC(C)=O)CSSC[C@@H](C(N)=O)NC(=O)[C@@H](Cc3c[nH]c4ccccc34)NC(=O)[C@H](CCCNC(=N)N)NC2=O)cc1
Protein Binding (%) [4]: 53%
MC4R selectivity vs MC1R [10]: 0.44
MC4R selectivity vs MC3R [10]: 0.49
Protein Binding (%) [6]: 41%
Protein Binding (%) [9]: 47%
% max activation [11]: 21%
cAMP EC50 [11]: 3 nM
% max activation [12]: 79%
cAMP EC50 [12]: 6.2 nM
